According to IntAct's records for PubMed 21926999:

Target: ARHGAP24, Q8N264-1
Sequence (Q8N264 whole entry): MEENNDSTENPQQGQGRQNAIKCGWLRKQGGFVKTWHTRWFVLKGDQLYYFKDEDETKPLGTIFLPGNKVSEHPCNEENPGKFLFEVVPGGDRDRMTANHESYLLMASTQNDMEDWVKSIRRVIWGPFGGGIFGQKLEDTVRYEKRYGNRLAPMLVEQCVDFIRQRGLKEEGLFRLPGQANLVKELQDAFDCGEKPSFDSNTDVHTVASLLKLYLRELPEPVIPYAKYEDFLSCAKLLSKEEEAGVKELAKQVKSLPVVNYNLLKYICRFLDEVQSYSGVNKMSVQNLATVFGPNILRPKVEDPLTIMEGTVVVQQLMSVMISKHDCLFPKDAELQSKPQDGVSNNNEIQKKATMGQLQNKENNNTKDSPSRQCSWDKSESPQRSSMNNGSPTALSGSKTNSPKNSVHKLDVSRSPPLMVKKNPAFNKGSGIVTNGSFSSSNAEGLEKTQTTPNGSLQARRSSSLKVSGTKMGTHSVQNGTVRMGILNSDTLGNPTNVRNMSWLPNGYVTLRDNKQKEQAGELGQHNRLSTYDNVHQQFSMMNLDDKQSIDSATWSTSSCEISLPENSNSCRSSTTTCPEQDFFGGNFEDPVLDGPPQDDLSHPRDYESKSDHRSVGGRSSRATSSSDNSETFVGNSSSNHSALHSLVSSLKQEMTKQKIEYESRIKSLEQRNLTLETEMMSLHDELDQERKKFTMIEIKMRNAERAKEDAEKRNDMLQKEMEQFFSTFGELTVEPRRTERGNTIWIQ

- effect of a mutation on the interaction: disrupting interaction
Substance: Filamin-A (Homo sapiens), P21333 M2474E
